± gives the standard deviation of the averaged measurements.
B1: library; a variant is named by its letters at N, in order (parent)
chain: GCUGUCACCGAGAAACUGUGAAGUAUAUCUUAAACCUGGGCACUUAAAAGAUAUAUGGAGUUAGUAGUGCAACCUGCUCGGUCUGAUGAGUCCNNNNNNGGACGAAACAGC

Columns and labels:
cyclic di-GMP [1] = variants of: B1; assay: normalized RNA/DNA level without ligand (relative to sTRSVctl = 100) (log10 (% of sTRSVctl)); HEK293T; ligand: cyclic di-GMP (c-di-GMP-II aptamer); higher = less ribozyme self-cleavage, higher mRNA level; conditions: reporter: mCherry (pCS4076), ligand present: no
How it was run: (§1)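 Only sequences with at least 100 DNA reads were analyzed, from HEK293T cells transfected with 4 µg per 6-well well of ribozyme switch library plasmids 72 h before RNA extraction with EDTA. Any ligand was added 1 h before transfection. RNA level was defined as RNA over DNA reads, normalized to a spiked-in non-cleaving sequence or to the top sequences, then scaled and log-transformed. The top set was 25 sequences, and the scaling was ×100 followed by log10.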

cyclic di-GMP [2] = variants of: B1; assay: normalized RNA/DNA level with ligand (relative to sTRSVctl = 100) (log10 (% of sTRSVctl)); HEK293T; ligand: cyclic di-GMP (c-di-GMP-II aptamer); ligand concentration (+) RNA-Seq: 1 mM; higher = less ribozyme self-cleavage, higher mRNA level; conditions: reporter: mCherry (pCS4076), ligand present: yes
How it was run: as §1

Variant: GCUGUCACCGAGAAACUGUGAAGUAUAUCUUAAACCUGGGCACUUAAAAGAUAUAUGGAGUUAGUAGUGCAACCUGCUCGGUCUGAUGAGUCCUAAGGUGGACGAAACAGC [UAAGGU]
- normalized RNA/DNA level without ligand (log10) (cyclic di-GMP [1]): 1.579 ± 0.013
- normalized RNA/DNA level with ligand (log10) (cyclic di-GMP [2]): 1.77 ± 0.073

Variant: GCUGUCACCGAGAAACUGUGAAGUAUAUCUUAAACCUGGGCACUUAAAAGAUAUAUGGAGUUAGUAGUGCAACCUGCUCGGUCUGAUGAGUCCGCGCUGGGACGAAACAGC [GCGCUG]
- normalized RNA/DNA level without ligand (log10) (cyclic di-GMP [1]): 1.77 ± 0.049
- normalized RNA/DNA level with ligand (log10) (cyclic di-GMP [2]): 1.84 ± 0.14

Variant: GCUGUCACCGAGAAACUGUGAAGUAUAUCUUAAACCUGGGCACUUAAAAGAUAUAUGGAGUUAGUAGUGCAACCUGCUCGGUCUGAUGAGUCCCUCGUAGGACGAAACAGC [CUCGUA]
- normalized RNA/DNA level without ligand (log10) (cyclic di-GMP [1]): 1.6 ± 0.025
- normalized RNA/DNA level with ligand (log10) (cyclic di-GMP [2]): 1.76 ± 0.086

Variant: GCUGUCACCGAGAAACUGUGAAGUAUAUCUUAAACCUGGGCACUUAAAAGAUAUAUGGAGUUAGUAGUGCAACCUGCUCGGUCUGAUGAGUCCUACUCAGGACGAAACAGC [UACUCA]
- normalized RNA/DNA level without ligand (log10) (cyclic di-GMP [1]): 1.77 ± 0.062
- normalized RNA/DNA level with ligand (log10) (cyclic di-GMP [2]): 1.89 ± 0.18

Variant: GCUGUCACCGAGAAACUGUGAAGUAUAUCUUAAACCUGGGCACUUAAAAGAUAUAUGGAGUUAGUAGUGCAACCUGCUCGGUCUGAUGAGUCCGCUAUUGGACGAAACAGC [GCUAUU]
- normalized RNA/DNA level without ligand (log10) (cyclic di-GMP [1]): 1.568 ± 0.0067
- normalized RNA/DNA level with ligand (log10) (cyclic di-GMP [2]): 1.74 ± 0.12

Variant: GCUGUCACCGAGAAACUGUGAAGUAUAUCUUAAACCUGGGCACUUAAAAGAUAUAUGGAGUUAGUAGUGCAACCUGCUCGGUCUGAUGAGUCCUAUCAAGGACGAAACAGC [UAUCAA]
- normalized RNA/DNA level without ligand (log10) (cyclic di-GMP [1]): 1.7 ± 0.031
- normalized RNA/DNA level with ligand (log10) (cyclic di-GMP [2]): 1.83 ± 0.11

Variant: GCUGUCACCGAGAAACUGUGAAGUAUAUCUUAAACCUGGGCACUUAAAAGAUAUAUGGAGUUAGUAGUGCAACCUGCUCGGUCUGAUGAGUCCUCACCUGGACGAAACAGC [UCACCU]
- normalized RNA/DNA level without ligand (log10) (cyclic di-GMP [1]): 1.7414 ± 0.00048
- normalized RNA/DNA level with ligand (log10) (cyclic di-GMP [2]): 1.89 ± 0.12

Variant: GCUGUCACCGAGAAACUGUGAAGUAUAUCUUAAACCUGGGCACUUAAAAGAUAUAUGGAGUUAGUAGUGCAACCUGCUCGGUCUGAUGAGUCCUUCUCCGGACGAAACAGC [UUCUCC]
- normalized RNA/DNA level without ligand (log10) (cyclic di-GMP [1]): 1.83 ± 0.031
- normalized RNA/DNA level with ligand (log10) (cyclic di-GMP [2]): 1.9 ± 0.1

Variant: GCUGUCACCGAGAAACUGUGAAGUAUAUCUUAAACCUGGGCACUUAAAAGAUAUAUGGAGUUAGUAGUGCAACCUGCUCGGUCUGAUGAGUCCCUAUGUGGACGAAACAGC [CUAUGU]
- normalized RNA/DNA level without ligand (log10) (cyclic di-GMP [1]): 1.748 ± 0.012
- normalized RNA/DNA level with ligand (log10) (cyclic di-GMP [2]): 1.84 ± 0.088

Variant: GCUGUCACCGAGAAACUGUGAAGUAUAUCUUAAACCUGGGCACUUAAAAGAUAUAUGGAGUUAGUAGUGCAACCUGCUCGGUCUGAUGAGUCCCUGUUGGGACGAAACAGC [CUGUUG]
- normalized RNA/DNA level without ligand (log10) (cyclic di-GMP [1]): 1.56 ± 0.035
- normalized RNA/DNA level with ligand (log10) (cyclic di-GMP [2]): 1.69 ± 0.076

Variant: GCUGUCACCGAGAAACUGUGAAGUAUAUCUUAAACCUGGGCACUUAAAAGAUAUAUGGAGUUAGUAGUGCAACCUGCUCGGUCUGAUGAGUCCCCACGAGGACGAAACAGC [CCACGA]
- normalized RNA/DNA level without ligand (log10) (cyclic di-GMP [1]): 1.6 ± 0.04
- normalized RNA/DNA level with ligand (log10) (cyclic di-GMP [2]): 1.74 ± 0.086

Variant: GCUGUCACCGAGAAACUGUGAAGUAUAUCUUAAACCUGGGCACUUAAAAGAUAUAUGGAGUUAGUAGUGCAACCUGCUCGGUCUGAUGAGUCCAGCCGCGGACGAAACAGC [AGCCGC]
- normalized RNA/DNA level without ligand (log10) (cyclic di-GMP [1]): 1.75 ± 0.033
- normalized RNA/DNA level with ligand (log10) (cyclic di-GMP [2]): 1.89 ± 0.13

Variant: GCUGUCACCGAGAAACUGUGAAGUAUAUCUUAAACCUGGGCACUUAAAAGAUAUAUGGAGUUAGUAGUGCAACCUGCUCGGUCUGAUGAGUCCUCUUCUGGACGAAACAGC [UCUUCU]
- normalized RNA/DNA level without ligand (log10) (cyclic di-GMP [1]): 1.76 ± 0.066
- normalized RNA/DNA level with ligand (log10) (cyclic di-GMP [2]): 1.84 ± 0.11

Variant: GCUGUCACCGAGAAACUGUGAAGUAUAUCUUAAACCUGGGCACUUAAAAGAUAUAUGGAGUUAGUAGUGCAACCUGCUCGGUCUGAUGAGUCCCCGUUAGGACGAAACAGC [CCGUUA]
- normalized RNA/DNA level without ligand (log10) (cyclic di-GMP [1]): 1.36 ± 0.096
- normalized RNA/DNA level with ligand (log10) (cyclic di-GMP [2]): 1.59 ± 0.15

Variant: GCUGUCACCGAGAAACUGUGAAGUAUAUCUUAAACCUGGGCACUUAAAAGAUAUAUGGAGUUAGUAGUGCAACCUGCUCGGUCUGAUGAGUCCACAUUCGGACGAAACAGC [ACAUUC]
- normalized RNA/DNA level without ligand (log10) (cyclic di-GMP [1]): 1.6 ± 0.084
- normalized RNA/DNA level with ligand (log10) (cyclic di-GMP [2]): 1.81 ± 0.058

Variant: GCUGUCACCGAGAAACUGUGAAGUAUAUCUUAAACCUGGGCACUUAAAAGAUAUAUGGAGUUAGUAGUGCAACCUGCUCGGUCUGAUGAGUCCAAAGCCGGACGAAACAGC [AAAGCC]
- normalized RNA/DNA level without ligand (log10) (cyclic di-GMP [1]): 1.7 ± 0.025
- normalized RNA/DNA level with ligand (log10) (cyclic di-GMP [2]): 1.84 ± 0.13

Variant: GCUGUCACCGAGAAACUGUGAAGUAUAUCUUAAACCUGGGCACUUAAAAGAUAUAUGGAGUUAGUAGUGCAACCUGCUCGGUCUGAUGAGUCCUGAUCUGGACGAAACAGC [UGAUCU]
- normalized RNA/DNA level without ligand (log10) (cyclic di-GMP [1]): 1.72 ± 0.023
- normalized RNA/DNA level with ligand (log10) (cyclic di-GMP [2]): 1.86 ± 0.11

Variant: GCUGUCACCGAGAAACUGUGAAGUAUAUCUUAAACCUGGGCACUUAAAAGAUAUAUGGAGUUAGUAGUGCAACCUGCUCGGUCUGAUGAGUCCGUAUGGGGACGAAACAGC [GUAUGG]
- normalized RNA/DNA level without ligand (log10) (cyclic di-GMP [1]): 1.53 ± 0.16
- normalized RNA/DNA level with ligand (log10) (cyclic di-GMP [2]): 1.7 ± 0.042

Variant: GCUGUCACCGAGAAACUGUGAAGUAUAUCUUAAACCUGGGCACUUAAAAGAUAUAUGGAGUUAGUAGUGCAACCUGCUCGGUCUGAUGAGUCCGAAGUAGGACGAAACAGC [GAAGUA]
- normalized RNA/DNA level without ligand (log10) (cyclic di-GMP [1]): 1.64 ± 0.021
- normalized RNA/DNA level with ligand (log10) (cyclic di-GMP [2]): 1.76 ± 0.061

Variant: GCUGUCACCGAGAAACUGUGAAGUAUAUCUUAAACCUGGGCACUUAAAAGAUAUAUGGAGUUAGUAGUGCAACCUGCUCGGUCUGAUGAGUCCCUUGUGGGACGAAACAGC [CUUGUG]
- normalized RNA/DNA level without ligand (log10) (cyclic di-GMP [1]): 1.73 ± 0.03
- normalized RNA/DNA level with ligand (log10) (cyclic di-GMP [2]): 1.91 ± 0.13

Variant: GCUGUCACCGAGAAACUGUGAAGUAUAUCUUAAACCUGGGCACUUAAAAGAUAUAUGGAGUUAGUAGUGCAACCUGCUCGGUCUGAUGAGUCCCUUUGGGGACGAAACAGC [CUUUGG]
- normalized RNA/DNA level without ligand (log10) (cyclic di-GMP [1]): 1.781 ± 0.0073
- normalized RNA/DNA level with ligand (log10) (cyclic di-GMP [2]): 1.87 ± 0.089

Variant: GCUGUCACCGAGAAACUGUGAAGUAUAUCUUAAACCUGGGCACUUAAAAGAUAUAUGGAGUUAGUAGUGCAACCUGCUCGGUCUGAUGAGUCCUUAUUCGGACGAAACAGC [UUAUUC]
- normalized RNA/DNA level without ligand (log10) (cyclic di-GMP [1]): 1.76 ± 0.073
- normalized RNA/DNA level with ligand (log10) (cyclic di-GMP [2]): 1.88 ± 0.14

Variant: GCUGUCACCGAGAAACUGUGAAGUAUAUCUUAAACCUGGGCACUUAAAAGAUAUAUGGAGUUAGUAGUGCAACCUGCUCGGUCUGAUGAGUCCUUAUUAGGACGAAACAGC [UUAUUA]
- normalized RNA/DNA level without ligand (log10) (cyclic di-GMP [1]): 1.68 ± 0.069
- normalized RNA/DNA level with ligand (log10) (cyclic di-GMP [2]): 1.8 ± 0.13

Variant: GCUGUCACCGAGAAACUGUGAAGUAUAUCUUAAACCUGGGCACUUAAAAGAUAUAUGGAGUUAGUAGUGCAACCUGCUCGGUCUGAUGAGUCCGAGUCCGGACGAAACAGC [GAGUCC]
- normalized RNA/DNA level without ligand (log10) (cyclic di-GMP [1]): 1.8 ± 0.043
- normalized RNA/DNA level with ligand (log10) (cyclic di-GMP [2]): 1.88 ± 0.064

Variant: GCUGUCACCGAGAAACUGUGAAGUAUAUCUUAAACCUGGGCACUUAAAAGAUAUAUGGAGUUAGUAGUGCAACCUGCUCGGUCUGAUGAGUCCUUGCCGGGACGAAACAGC [UUGCCG]
- normalized RNA/DNA level without ligand (log10) (cyclic di-GMP [1]): 1.83 ± 0.058
- normalized RNA/DNA level with ligand (log10) (cyclic di-GMP [2]): 1.91 ± 0.12

Variant: GCUGUCACCGAGAAACUGUGAAGUAUAUCUUAAACCUGGGCACUUAAAAGAUAUAUGGAGUUAGUAGUGCAACCUGCUCGGUCUGAUGAGUCCUACACUGGACGAAACAGC [UACACU]
- normalized RNA/DNA level without ligand (log10) (cyclic di-GMP [1]): 1.714 ± 0.014
- normalized RNA/DNA level with ligand (log10) (cyclic di-GMP [2]): 1.84 ± 0.059
